Measured values as given in paper PMC4936993, “Preparation of a functional fluorescent human Fas ligand extracellular domain derivative using a three-dimensional structure guided site-specific fluorochrome conjugation” (SpringerPlus, 2016).

Biological target: T1, FL-5Mal conjugated NFG1CG4-hFasLECD (human, UniProt P48023 139-281, N184Q | N250Q, Fluorescein-5-Maleimide conjugated to the unpaired cysteine in the N-terminal tag sequence (estimated 2.5 per trimer, approximately 83 % of the cysteines))
T1 construct: linker of the N-terminal tag, between FLAG (DYKDDDDK) and residue 139 of hFasLECD; printed in three-letter code; its Cys is the conjugation site; human Fas ligand (CD178) extracellular domain with residues 103-138 deleted: hFasLECD (139-281, N184Q, N250Q); It calls the protein a trimer in words only; also called Fluorescein-5-Maleimide conjugated human Fas ligand extracellular domain derivative; …
T1 sequence: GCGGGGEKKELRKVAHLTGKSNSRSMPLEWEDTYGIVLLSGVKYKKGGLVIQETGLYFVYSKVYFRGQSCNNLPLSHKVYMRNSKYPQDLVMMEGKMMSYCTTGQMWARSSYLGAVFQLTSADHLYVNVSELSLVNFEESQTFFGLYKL
Test: SEC; mixtures of hFasRECD-Fc and the conjugate in several amount ratios on Superdex 200 10/300 GL; 50 mM Tris-hydrochloride, 150 mM sodium chloride, pH 7.5; 0.5 ml/min; absorbance at 280 and 495 nm
Details: both partners purified

B1: human Fas receptor extracellular domain—human IgG1 Fc domain fusion protein (Fc fusion, UniProt P25445 26-173, looked up)
chain: QVTDINSKGLELRKTVTTVETQNLEGLHHDGQFCHKPCPPGERKARDCTVNGDEPDCVPCQEGKEYTDKAHFSSKCRRCRLCDEGHGLEVEINCTRTQNTKCRCKPNFFCNSTVCEHCDPCTKCEHGIIKECTLTSNTKCKEEGSRSN
notes: human Fas receptor (CD95) extracellular domain; also called hFasRECD-Fc; source: baculovirus—Bombyx mori larvae expression system, purified (Hi-Trap Protein G HP, Mono Q 10/10; main peak also by Superdex 200)
  binding result: binds
